{"source": "paper PMC3262814", "about": "“Purification and Activity Testing of the Full-Length YycFGHI Proteins of Staphylococcus aureus” (PLoS ONE, 2012)", "key": {"[1]": {"target": "YycI-C-His6 (Staphylococcus aureus SA137/93A)", "assay": "native gel or EMSA; blue native PAGE (BN-PAGE) of single proteins; 4-20% Tris-HCl gradient gel; 5 µg of YycF, YycH, YycI or 10 µg of YycG, YycG(Y306N) in 10 µl dialysis buffer I (50 mM NaH2PO4, 300 mM NaCl, 50% glycerol, pH 8) with Coomassie Brilliant Blue R250; 80 V, 4-7°C; masses calibrated with soluble markers and a conversion factor"}, "[2]": {"target": "the molecule itself", "assay": "native gel or EMSA; blue native PAGE (BN-PAGE) of single proteins; 4-20% Tris-HCl gradient gel; 5 µg of YycF, YycH, YycI or 10 µg of YycG, YycG(Y306N) in 10 µl dialysis buffer I (50 mM NaH2PO4, 300 mM NaCl, 50% glycerol, pH 8) with Coomassie Brilliant Blue R250; 80 V, 4-7°C; masses calibrated with soluble markers and a conversion factor"}}, "note": "“And” between values parts separate entries of the source, which are not always exact repeats. Equal entries are not always repeated."}
{"molecule": "YycI-C-His6 (natural protein)", "values": [{"measurement": "stoichiometry N", "setting": "[1]", "value": "< 6"}]}
{"molecule": "YycG-C-His6 (enzyme, Staphylococcus aureus SA137/93A, two additional residues (Met-Gly) at the N-terminus, from the NcoI site placed in frame; Cloned NcoI/XhoI into pET22bΔpelB; also called WalK; VicK; source: E. coli C41(DE3) or C43(DE3) pREP4groESL(MT), purified from the membrane fraction (DDM, Ni-NTA); not shown: His6, C-terminal, kept) MGMKWLKQLQSLHTKLVIVYVLLIIIGMQIIGLYFTNNLEKELLDNFKKNITQYAKQLEISIEKVYDEKGSVNAQKDIQNLLSEYANRQEIGEIRFIDKDQIIIATTKQSNRSLINQKANDSSVQKALSLGQSNDHLILKDYGGGKDRVWVYNIPVKVDKKVIGNIYIESKINDVYNQLNNINQIFIVGTAISLLITVILGFFIARTITKPITDMRNQTVEMSRGNYTQRVKIYGNDEIGELALAFNNLSKRVQEAQANTESEKRRLDSVITHMSDGIIATDRRGRIRIVNDMALKMLGMAKEDIIGYYMLSVLSLEDEFKLEEIQENNDSFLLDLNEEEGLIARVNFSTIVQETGFVTGYIAVLHDVTEQQQVERERREFVANVSHELRTPLTSMNSYIEALEEGAWKDEELAPQFLSVTREETERMIRLVNDLLQLSKMDNESDQINKEIIDFNMFINKIINRHEMSAKDTTFIRDIPKKTIFTEFDPDKMTQVFDNVITNAMKYSRGDKRVEFHVKQNPLYNRMTIRIKDNGIGIPINKVDKIFDRFYRVDKARTRKMGGTGLGLAISKEIVEAHNGRIWANSVEGQGTSIFITLPCEVIEDGDWDE", "values": [{"measurement": "stoichiometry N", "setting": "[2]", "value": "2 and 3 and 4"}]}
{"molecule": "YycG(Y306N)-C-His6 (enzyme, two additional residues (Met-Gly) at the N-terminus, from the NcoI site placed in frame; YycG (WalK/VicK) sensor histidine kinase of Staphylococcus aureus with the exchange Y306N (nucleotide exchange T916A) in the cytoplasmic PAS domain; Cloned NcoI/XhoI into pET22bΔpelB; also called mutant kinase; mutated YycG kinase; source: E. coli C41(DE3) or C43(DE3) pREP4groESL(MT), purified from the …) MGMKWLKQLQSLHTKLVIVYVLLIIIGMQIIGLYFTNNLEKELLDNFKKNITQYAKQLEISIEKVYDEKGSVNAQKDIQNLLSEYANRQEIGEIRFIDKDQIIIATTKQSNRSLINQKANDSSVQKALSLGQSNDHLILKDYGGGKDRVWVYNIPVKVDKKVIGNIYIESKINDVYNQLNNINQIFIVGTAISLLITVILGFFIARTITKPITDMRNQTVEMSRGNYTQRVKIYGNDEIGELALAFNNLSKRVQEAQANTESEKRRLDSVITHMSDGIIATDRRGRIRIVNDMALKMLGMAKEDIIGNYMLSVLSLEDEFKLEEIQENNDSFLLDLNEEEGLIARVNFSTIVQETGFVTGYIAVLHDVTEQQQVERERREFVANVSHELRTPLTSMNSYIEALEEGAWKDEELAPQFLSVTREETERMIRLVNDLLQLSKMDNESDQINKEIIDFNMFINKIINRHEMSAKDTTFIRDIPKKTIFTEFDPDKMTQVFDNVITNAMKYSRGDKRVEFHVKQNPLYNRMTIRIKDNGIGIPINKVDKIFDRFYRVDKARTRKMGGTGLGLAISKEIVEAHNGRIWANSVEGQGTSIFITLPCEVIEDGDWDE", "values": [{"measurement": "stoichiometry N", "setting": "[2]", "value": "2 and 3 and 4"}]}
